The results in this text go back to patent US20050112108.

This series concerns the target GAAP-1 (Homo sapiens) (UniProt P15822). The series is described as follows: cell_activity. As to conditions: luciferase vs empty vector.

Chain of GAAP-1 (Homo sapiens) (P15822 other isoform, or with tags, fused parts or gaps): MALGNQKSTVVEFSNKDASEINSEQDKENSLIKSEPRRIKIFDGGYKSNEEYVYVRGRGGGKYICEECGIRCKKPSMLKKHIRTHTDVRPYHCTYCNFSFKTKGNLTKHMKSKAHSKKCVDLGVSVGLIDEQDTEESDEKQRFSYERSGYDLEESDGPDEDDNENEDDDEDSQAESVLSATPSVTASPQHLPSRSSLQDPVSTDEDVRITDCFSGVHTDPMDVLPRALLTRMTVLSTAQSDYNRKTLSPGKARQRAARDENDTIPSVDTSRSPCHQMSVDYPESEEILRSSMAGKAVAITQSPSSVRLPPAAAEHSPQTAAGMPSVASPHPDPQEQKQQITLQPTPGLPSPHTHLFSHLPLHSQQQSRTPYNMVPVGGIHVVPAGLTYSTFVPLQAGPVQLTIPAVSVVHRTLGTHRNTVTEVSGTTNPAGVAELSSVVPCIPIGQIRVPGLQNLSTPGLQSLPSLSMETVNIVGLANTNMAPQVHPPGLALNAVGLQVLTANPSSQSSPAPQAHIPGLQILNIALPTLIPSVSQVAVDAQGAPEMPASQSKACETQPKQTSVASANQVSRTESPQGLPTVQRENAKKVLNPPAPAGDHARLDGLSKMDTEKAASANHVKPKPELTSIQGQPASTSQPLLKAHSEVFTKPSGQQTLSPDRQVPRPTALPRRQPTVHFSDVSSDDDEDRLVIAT

Turning to IPCS-SV40 chimeric promoter, the activity came to 2.5 fold.

On to IRF1 promoter luciferase, for which the activity was determined as 2.5 fold.

In the case of p53 promoter luciferase, under “K562 in text, U937 in figure legend”, the activity is 2.5 fold.
